In the supplement of paper PMC10065799, “High-throughput profiling of sequence recognition by tyrosine kinases and SH2 domains using bacterial peptide display” (eLife, 2023):

Tests used:
MERTK = MERTK (UniProt Q12866); experiment: phosphorylation enrichment, bacterial display (enrichment ratio); higher = better substrate or ligand; peptides without Tyr show the background
EPHB2 = EPHB2 (UniProt P29323); experiment: as above
Fer (mouse) = experiment: as above
Jak2 = Jak2 (UniProt O60674); experiment: as above
Sequence of Jak2 (O60674 whole entry, looked up): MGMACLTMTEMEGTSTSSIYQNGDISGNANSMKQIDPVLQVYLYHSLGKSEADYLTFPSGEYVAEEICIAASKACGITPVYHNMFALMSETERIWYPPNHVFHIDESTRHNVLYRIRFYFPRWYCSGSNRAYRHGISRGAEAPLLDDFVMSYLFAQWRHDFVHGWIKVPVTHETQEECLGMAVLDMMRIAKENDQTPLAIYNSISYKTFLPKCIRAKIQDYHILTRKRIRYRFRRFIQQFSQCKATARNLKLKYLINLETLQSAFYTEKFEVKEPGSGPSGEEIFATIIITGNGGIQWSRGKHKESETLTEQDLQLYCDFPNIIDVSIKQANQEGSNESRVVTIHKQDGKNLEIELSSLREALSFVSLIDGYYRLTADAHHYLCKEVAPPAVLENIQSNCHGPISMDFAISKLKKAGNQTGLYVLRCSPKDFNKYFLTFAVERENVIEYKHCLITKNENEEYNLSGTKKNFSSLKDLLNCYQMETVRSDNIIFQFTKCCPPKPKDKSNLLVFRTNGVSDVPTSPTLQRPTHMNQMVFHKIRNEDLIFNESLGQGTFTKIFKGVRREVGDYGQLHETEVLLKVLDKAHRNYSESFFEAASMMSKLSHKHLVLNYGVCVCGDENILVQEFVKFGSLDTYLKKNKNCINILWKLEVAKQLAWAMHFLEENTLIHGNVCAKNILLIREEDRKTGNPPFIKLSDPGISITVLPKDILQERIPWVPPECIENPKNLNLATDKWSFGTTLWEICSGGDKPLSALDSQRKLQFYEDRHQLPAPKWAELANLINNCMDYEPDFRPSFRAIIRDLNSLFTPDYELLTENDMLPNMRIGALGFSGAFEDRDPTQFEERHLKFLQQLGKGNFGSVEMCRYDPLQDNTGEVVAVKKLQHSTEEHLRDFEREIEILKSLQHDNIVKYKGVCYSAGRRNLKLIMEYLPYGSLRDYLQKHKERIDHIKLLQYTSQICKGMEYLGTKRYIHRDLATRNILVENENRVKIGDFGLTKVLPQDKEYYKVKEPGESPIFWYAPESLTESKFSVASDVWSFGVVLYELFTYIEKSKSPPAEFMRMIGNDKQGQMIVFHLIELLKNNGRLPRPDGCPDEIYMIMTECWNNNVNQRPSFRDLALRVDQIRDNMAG

c-Abl (mouse) = experiment: as above
c-Src = experiment: as above
FGFR3 = FGFR3 (UniProt P22607); experiment: as above
Sequence of FGFR3 (P22607 whole entry, looked up): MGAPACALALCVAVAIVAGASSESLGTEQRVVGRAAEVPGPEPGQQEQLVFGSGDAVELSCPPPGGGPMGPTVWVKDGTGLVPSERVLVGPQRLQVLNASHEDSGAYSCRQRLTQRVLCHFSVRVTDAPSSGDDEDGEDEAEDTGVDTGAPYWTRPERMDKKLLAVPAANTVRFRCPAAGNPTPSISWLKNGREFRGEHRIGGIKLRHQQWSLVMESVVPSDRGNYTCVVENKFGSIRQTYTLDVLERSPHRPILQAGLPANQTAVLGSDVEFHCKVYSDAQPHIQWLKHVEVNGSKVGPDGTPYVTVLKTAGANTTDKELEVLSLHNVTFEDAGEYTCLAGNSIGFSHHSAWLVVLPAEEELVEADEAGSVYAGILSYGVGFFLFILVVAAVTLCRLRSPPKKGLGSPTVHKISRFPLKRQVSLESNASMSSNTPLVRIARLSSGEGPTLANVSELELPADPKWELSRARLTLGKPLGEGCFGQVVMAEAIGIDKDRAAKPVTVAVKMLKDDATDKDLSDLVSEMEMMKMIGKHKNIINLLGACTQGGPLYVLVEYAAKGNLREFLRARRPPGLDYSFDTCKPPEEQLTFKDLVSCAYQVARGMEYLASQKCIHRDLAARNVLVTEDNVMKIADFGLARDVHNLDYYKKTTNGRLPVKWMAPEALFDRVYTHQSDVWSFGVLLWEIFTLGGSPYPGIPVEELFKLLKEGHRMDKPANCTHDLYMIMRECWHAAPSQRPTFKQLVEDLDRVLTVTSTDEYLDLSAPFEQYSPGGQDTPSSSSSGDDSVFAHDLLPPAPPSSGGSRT

Fyn = Fyn (UniProt P06241); experiment: as above
Sequence of Fyn (P06241 whole entry, looked up): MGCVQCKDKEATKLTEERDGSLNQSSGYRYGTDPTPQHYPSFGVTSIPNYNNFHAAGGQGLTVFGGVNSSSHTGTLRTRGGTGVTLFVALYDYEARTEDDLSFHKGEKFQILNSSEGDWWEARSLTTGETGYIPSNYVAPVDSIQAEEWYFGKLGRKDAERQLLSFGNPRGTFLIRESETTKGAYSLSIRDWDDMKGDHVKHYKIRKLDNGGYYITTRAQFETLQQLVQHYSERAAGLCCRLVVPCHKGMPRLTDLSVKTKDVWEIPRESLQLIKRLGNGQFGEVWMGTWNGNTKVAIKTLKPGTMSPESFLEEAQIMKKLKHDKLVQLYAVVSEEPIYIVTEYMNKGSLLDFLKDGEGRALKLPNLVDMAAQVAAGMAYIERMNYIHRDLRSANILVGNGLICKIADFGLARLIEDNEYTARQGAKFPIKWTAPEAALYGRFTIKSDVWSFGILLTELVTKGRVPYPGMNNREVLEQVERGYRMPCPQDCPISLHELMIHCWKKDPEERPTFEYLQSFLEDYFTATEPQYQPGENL

FGFR1 = FGFR1 (UniProt P11362); experiment: as above
Sequence of FGFR1 (P11362 whole entry, looked up): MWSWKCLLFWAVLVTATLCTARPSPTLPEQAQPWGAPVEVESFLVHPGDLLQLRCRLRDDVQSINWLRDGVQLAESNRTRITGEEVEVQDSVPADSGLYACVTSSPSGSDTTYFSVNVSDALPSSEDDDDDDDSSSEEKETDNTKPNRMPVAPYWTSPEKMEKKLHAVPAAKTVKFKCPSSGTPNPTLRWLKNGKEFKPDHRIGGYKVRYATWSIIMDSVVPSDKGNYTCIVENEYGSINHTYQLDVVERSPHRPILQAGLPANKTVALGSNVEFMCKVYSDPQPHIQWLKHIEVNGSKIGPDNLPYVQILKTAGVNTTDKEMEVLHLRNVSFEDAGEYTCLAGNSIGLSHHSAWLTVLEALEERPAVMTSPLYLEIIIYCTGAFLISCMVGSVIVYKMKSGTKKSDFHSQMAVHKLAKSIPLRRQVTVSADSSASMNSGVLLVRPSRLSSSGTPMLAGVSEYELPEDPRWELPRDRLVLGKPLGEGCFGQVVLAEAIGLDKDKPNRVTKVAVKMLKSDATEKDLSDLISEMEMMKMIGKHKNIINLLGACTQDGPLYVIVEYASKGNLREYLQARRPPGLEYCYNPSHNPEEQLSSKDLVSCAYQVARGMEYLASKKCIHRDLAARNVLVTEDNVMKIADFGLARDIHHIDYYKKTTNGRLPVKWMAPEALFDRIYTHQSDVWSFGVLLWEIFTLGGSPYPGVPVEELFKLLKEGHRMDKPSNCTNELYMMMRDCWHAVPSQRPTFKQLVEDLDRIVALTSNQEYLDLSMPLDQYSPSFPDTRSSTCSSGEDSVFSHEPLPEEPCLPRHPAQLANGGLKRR

Hck = Hck (UniProt P08631); experiment: as above
AncSZ = experiment: as above
EPHB1 = EPHB1 (UniProt P54762); experiment: as above
Sequence of EPHB1 (P54762 whole entry, looked up): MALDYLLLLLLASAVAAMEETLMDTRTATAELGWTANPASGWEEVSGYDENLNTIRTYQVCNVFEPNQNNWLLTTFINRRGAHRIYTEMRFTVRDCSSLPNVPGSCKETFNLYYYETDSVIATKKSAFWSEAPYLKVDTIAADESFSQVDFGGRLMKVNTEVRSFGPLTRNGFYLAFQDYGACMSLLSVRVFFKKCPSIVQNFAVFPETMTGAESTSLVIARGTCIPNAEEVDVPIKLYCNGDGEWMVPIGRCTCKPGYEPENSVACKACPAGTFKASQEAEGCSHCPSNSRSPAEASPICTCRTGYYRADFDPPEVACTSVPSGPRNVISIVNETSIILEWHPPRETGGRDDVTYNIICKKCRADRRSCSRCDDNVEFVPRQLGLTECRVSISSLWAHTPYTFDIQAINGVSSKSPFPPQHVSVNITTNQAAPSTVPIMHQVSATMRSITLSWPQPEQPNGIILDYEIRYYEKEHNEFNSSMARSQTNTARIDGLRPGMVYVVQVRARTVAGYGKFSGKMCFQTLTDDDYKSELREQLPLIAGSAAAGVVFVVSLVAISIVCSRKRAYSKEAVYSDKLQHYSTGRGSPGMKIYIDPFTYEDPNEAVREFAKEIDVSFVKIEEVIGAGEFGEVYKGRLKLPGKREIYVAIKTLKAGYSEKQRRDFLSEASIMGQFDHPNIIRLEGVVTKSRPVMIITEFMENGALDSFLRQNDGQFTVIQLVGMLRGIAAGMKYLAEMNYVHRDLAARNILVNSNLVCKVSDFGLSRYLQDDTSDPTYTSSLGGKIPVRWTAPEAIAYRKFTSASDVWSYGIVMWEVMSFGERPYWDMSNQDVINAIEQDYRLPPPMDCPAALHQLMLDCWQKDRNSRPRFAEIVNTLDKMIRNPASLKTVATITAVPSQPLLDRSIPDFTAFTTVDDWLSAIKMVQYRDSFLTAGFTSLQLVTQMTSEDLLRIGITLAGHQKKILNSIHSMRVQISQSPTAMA

Fes = Fes (UniProt P07332); experiment: as above
Sequence of Fes (P07332 whole entry, looked up): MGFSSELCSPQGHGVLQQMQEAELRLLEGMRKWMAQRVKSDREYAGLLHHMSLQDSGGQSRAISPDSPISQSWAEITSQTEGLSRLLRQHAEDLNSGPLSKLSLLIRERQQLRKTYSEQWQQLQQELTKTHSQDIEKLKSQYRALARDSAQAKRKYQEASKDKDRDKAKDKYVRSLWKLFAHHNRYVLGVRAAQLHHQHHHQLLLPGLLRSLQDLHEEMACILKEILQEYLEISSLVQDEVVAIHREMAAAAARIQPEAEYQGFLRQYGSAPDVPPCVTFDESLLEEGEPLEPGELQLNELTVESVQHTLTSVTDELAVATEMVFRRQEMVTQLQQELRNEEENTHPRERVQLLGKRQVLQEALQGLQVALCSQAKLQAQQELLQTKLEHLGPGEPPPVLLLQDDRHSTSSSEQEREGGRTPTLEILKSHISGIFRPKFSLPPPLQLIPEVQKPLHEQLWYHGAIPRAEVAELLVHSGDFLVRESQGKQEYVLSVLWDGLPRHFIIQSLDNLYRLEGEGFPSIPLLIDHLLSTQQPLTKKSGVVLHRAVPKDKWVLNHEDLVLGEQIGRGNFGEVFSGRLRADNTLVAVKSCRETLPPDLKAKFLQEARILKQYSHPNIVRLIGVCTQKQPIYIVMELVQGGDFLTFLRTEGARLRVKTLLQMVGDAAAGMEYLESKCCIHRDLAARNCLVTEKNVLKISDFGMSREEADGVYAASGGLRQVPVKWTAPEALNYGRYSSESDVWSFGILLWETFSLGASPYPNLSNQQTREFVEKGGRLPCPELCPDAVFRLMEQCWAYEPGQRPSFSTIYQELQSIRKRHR

Grb2 SH2 = Grb2 SH2 (UniProt P62993); experiment: SH2 binding enrichment of the phosphorylated peptide, bacterial display (enrichment ratio); higher = better substrate or ligand; peptides without Tyr show the background
SHP2-C SH2 = experiment: as above
c-Src SH2 = experiment: as above
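For SH2 binding enrichment of the phosphorylated peptide, bacterial display in this document: peptide library displayed on the E. coli surface as eCPX fusions, selected cells deep-sequenced, score is each peptide's frequency after selection divided by its frequency in the input.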
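For phosphorylation enrichment, bacterial display in this document: 11-residue human phosphosite peptides and single-mutation variants displayed on the E. coli surface, counted by deep sequencing, each peptide's frequency after selection divided by its frequency in the unselected input library; frequency after pTyr selection over input frequency; kinase dosed for 20-30% of maximal phosphorylation in three min.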

Row | SH2 binding enrichment (Grb2 SH2) | SH2 binding enrichment (SHP2-C SH2) | SH2 binding enrichment (c-Src SH2) | Sequence | phosphorylation enrichment (MERTK) | phosphorylation enrichment (EPHB2) | phosphorylation enrichment (Fer (mouse)) | phosphorylation enrichment (Jak2) | phosphorylation enrichment (c-Abl (mouse)) | phosphorylation enrichment (c-Src) | phosphorylation enrichment (FGFR3) | phosphorylation enrichment (Fyn) | phosphorylation enrichment (FGFR1) | phosphorylation enrichment (Hck) | phosphorylation enrichment (AncSZ) | phosphorylation enrichment (EPHB1) | phosphorylation enrichment (Fes)
1 | 0.9 | 0.851 | 0.588 | FGVTLYPNSGE [MEP1A_Y472_R476G] | 0.341 | 0.726 | 0.54 | 1.23 | 0.794 | 0.473 | 0.714 | 0.481 | 0.524 | 0.574 | 1.28 | 0.597 | 1.12
2 | 0.679 | 0.77 | 0.51 | YLQEIYNSNNQ [FGG_Y140] | 0.441 | 0.561 | 0.512 | 0.998 | 0.692 | 1.84 | 0.606 | 1.59 | 0.436 | 1.54 | 0.918 | 0.617 | 1.23
3 | 0.848 | 0.539 | 0.871 | RLGVTYEQALA [MAP2_Y996_G991R] | 0.737 | 1.81 | 0.535 | 1.15 | 0.965 | 1.05 | 0.825 | 0.77 | 0.721 | 0.56 | 1.36 | 0.729 | 1
4 | 0.793 | 0.679 | 0.432 | PLSGEYFTLQI [TP53_Y327_D324S] | 0.763 | 1.2 | 0.722 | 6.87 | 2.51 | 3.48 | 9.65 | 4.49 | 13.7 | 1.89 | 3.93 | 1.82 | 1.62
5 | 0.793 | 0.771 | 0.463 | RFQKLYLDRNL [IGFALS_Y248_L244F] | 0.342 | 0.509 | 0.224 | 0.538 | 0.486 | 0.332 | 0.655 | 0.492 | 0.636 | 0.569 | 0.726 | 0.529 | 0.761
6 | 0.86 | 0.858 | 3.56 | LRTAVYHEILI [CREBBP_Y1450] | 7.48 | 1.85 | 14.4 | 3.67 | 2.77 | 12.5 | 12.1 | 7.22 | 16.7 | 7.29 | 3.59 | 1.97 | 3.73
7 | 0.884 | 0.636 | 0.433 | TLLERYGMTKI [ACSF3_Y355_E359K] | 0.407 | 0.594 | 0.374 | 0.625 | 0.728 | 0.43 | 0.667 | 0.484 | 0.513 | 0.478 | 0.751 | 0.531 | 0.734
8 | 1.71 | 1.19 | 1.03 | FTFTSYFMHWV [IGHV1-46_Y51_YF] | 0.391 | 0.648 | 0.495 | 2.37 | 1.05 | 0.608 | 0.765 | 0.474 | 0.5 | 0.451 | 1.16 | 0.437 | 1.13
9 | 1.05 | 0.849 | 0.776 | ACCLLYRGDVV [TUBA4A_Y319] | 0.709 | 0.557 | 0.758 | 0.853 | 0.482 | 5.88 | 1.34 | 0.565 | 3.27 | 0.645 | 0.947 | 0.507 | 0.889
10 | 0.575 | 0.705 | 0.443 | QEIATYPRLLE [KRT14_Y415_R416P] | 0.515 | 1.04 | 0.792 | 1.43 | 1.07 | 0.595 | 0.869 | 0.611 | 0.77 | 0.845 | 1.08 | 0.581 | 1.62
11 | 0.846 | 0.695 | 0.447 | GIVEDYRPTFF [ACVRL1_Y421_P424T_YF] | 0.452 | 0.549 | 0.468 | 0.838 | 0.811 | 0.45 | 0.651 | 0.394 | 0.592 | 0.416 | 0.897 | 0.578 | 1.04
12 | 0.978 | 1.47 | 0.778 | AIMSFYAALID [RYR1_Y2426] | 0.74 | 0.667 | 0.69 | 1.56 | 1.02 | 0.513 | 0.988 | 0.506 | 0.417 | 0.574 | 1.15 | 1.13 | 1.48
13 | 0.788 | 0.609 | 0.396 | MSSAGYRAAEG [COL6A3_Y543_T538M] | 0.372 | 0.334 | 0.379 | 0.529 | 0.497 | 0.404 | 0.444 | 0.387 | 0.425 | 0.375 | 0.468 | 0.389 | 0.495
14 | 0.889 | 1.1 | 0.47 | SFPSFYTSHVQ [NEFL_Y443_YF] | 1.23 | 0.584 | 0.509 | 0.657 | 0.498 | 0.509 | 0.609 | 0.563 | 0.5 | 0.548 | 0.874 | 0.677 | 0.857
15 | 0.672 | 0.633 | 0.581 | GFIISYREEEQ | 0.313 | 0.5 | 0.644 | 1.34 | 0.598 | 0.399 | 0.729 | 0.488 | 0.478 | 0.456 | 1.41 | 0.495 | 1.27
16 | 0.67 | 0.557 | 0.418 | ALRASYTPSPV [ESS2_Y418_A423V] | 0.435 | 0.53 | 0.424 | 0.909 | 0.945 | 0.678 | 0.502 | 0.39 | 0.32 | 0.458 | 0.847 | 0.366 | 0.723
17 | 1.13 | 0.632 | 3.99 | HVKHNYECLVF [XRCC5_Y416_I412V_YF] | 0.948 | 1.16 | 1.09 | 1.71 | 1.23 | 0.754 | 0.928 | 0.584 | 0.558 | 0.581 | 1.23 | 1.36 | 1.17

Row | SH2 binding enrichment (Grb2 SH2) | SH2 binding enrichment (SHP2-C SH2) | SH2 binding enrichment (c-Src SH2) | Sequence | phosphorylation enrichment (MERTK) | phosphorylation enrichment (EPHB2) | phosphorylation enrichment (Fer (mouse)) | phosphorylation enrichment (Jak2) | phosphorylation enrichment (c-Abl (mouse)) | phosphorylation enrichment (c-Src) | phosphorylation enrichment (FGFR3) | phosphorylation enrichment (Fyn) | phosphorylation enrichment (FGFR1) | phosphorylation enrichment (Hck) | phosphorylation enrichment (AncSZ) | phosphorylation enrichment (EPHB1) | phosphorylation enrichment (Fes)
18 | 1.07 | 0.666 | 0.572 | QPTPGYEVGQR [TSC2_Y1788_E1783Q] | 0.255 | 0.474 | 0.21 | 0.444 | 0.443 | 0.329 | 0.621 | 0.541 | 0.609 | 0.535 | 0.637 | 0.454 | 0.759
19 | 0.775 | 0.563 | 0.532 | EVEPTYVVLYD [ERCC4_Y577_R576T] | 3.54 | 13.7 | 1.49 | 1.1 | 0.864 | 4.73 | 4.01 | 6 | 5.87 | 3 | 1.76 | 10.9 | 1.13
20 | 0.598 | 0.552 | 0.476 | VFFGSYSCPFG [NKAP_Y104_R106C_YF] | 0.836 | 0.786 | 0.679 | 1.33 | 1.15 | 0.55 | 0.92 | 0.437 | 0.476 | 0.518 | 1.45 | 0.802 | 1.5
21 | 1.13 | 0.627 | 0.931 | SYCYRYCCAAR [SUMF1_Y344_R345C] | 0.437 | 0.553 | 0.457 | 0.679 | 0.622 | 0.369 | 0.769 | 0.43 | 0.47 | 0.497 | 0.968 | 0.392 | 0.976
22 | 0.663 | 0.421 | 0.388 | KANEFYPVVLI [ADAMTS18_Y765_YF] | 0.451 | 0.48 | 0.82 | 1.06 | 0.68 | 0.506 | 1.97 | 0.482 | 2.76 | 0.412 | 1.03 | 0.448 | 1.15
23 | 0.803 | 0.629 | 0.543 | EREFKYDAHNF [OAT_Y50_G51D_YF] | 0.512 | 0.445 | 0.832 | 0.914 | 0.645 | 0.477 | 0.693 | 0.361 | 0.643 | 0.558 | 0.915 | 0.624 | 1.02
24 | 0.953 | 0.58 | 0.424 | FADIAYNFRDG [PAH_Y166_H170D_YF] | 0.47 | 0.476 | 0.473 | 0.654 | 0.551 | 0.583 | 0.613 | 0.534 | 0.41 | 0.464 | 0.695 | 0.446 | 0.892
25 | 0.875 | 0.899 | 0.531 | GCRSKSVGLWG [KCNQ1_Y184_Y184S] | 0.389 | 0.488 | 0.365 | 0.539 | 0.477 | 0.436 | 0.382 | 0.344 | 0.429 | 0.423 | 0.51 | 0.38 | 0.62
26 | 0.806 | 0.623 | 0.765 | YADGVYQALEE [DUOX2_Y70] | 1.91 | 2.82 | 1.55 | 1.11 | 2.69 | 4.45 | 0.809 | 4.15 | 0.751 | 3.86 | 1.71 | 2.83 | 1.38
27 | 1.05 | 0.716 | 0.807 | SCRENYSFSEE [LEMD3_Y258_D260Y_YF] | 0.38 | 0.725 | 0.53 | 0.988 | 0.791 | 0.588 | 0.75 | 0.501 | 0.452 | 0.509 | 1.1 | 0.709 | 1.08
28 | 1.01 | 0.482 | 0.559 | EEQKKYYNATK [SCN5A_Y1494_M1498T] | 0.411 | 0.521 | 0.421 | 0.476 | 0.407 | 0.363 | 0.554 | 0.467 | 1.29 | 0.478 | 0.59 | 0.543 | 0.673
29 | 0.771 | 0.666 | 0.527 | FMCKVYSDRQP [FGFR1_Y280_P283R] | 0.463 | 0.577 | 0.587 | 1.35 | 0.879 | 0.634 | 0.808 | 0.544 | 0.494 | 0.582 | 1.52 | 0.577 | 1.54
30 | 0.817 | 0.688 | 1.02 | FSQQTYCRVSN [ABCD1_Y180_Y181C] | 0.745 | 2.1 | 0.558 | 0.764 | 0.76 | 0.881 | 0.644 | 0.557 | 0.538 | 1.34 | 0.875 | 3.39 | 0.981
31 | 0.752 | 0.588 | 0.517 | AVLALHNSTRD [TGFB1_Y81_Y81H] | 0.398 | 0.323 | 0.38 | 0.519 | 0.494 | 0.322 | 0.387 | 0.423 | 0.346 | 0.359 | 0.546 | 0.354 | 0.647
32 | 1.16 | 0.986 | 0.591 | LEEFQYIGELQ [MSH2_Y856_S860L] | 0.716 | 0.788 | 0.656 | 2.39 | 1.33 | 0.738 | 1.08 | 0.718 | 0.793 | 0.908 | 1.92 | 0.892 | 2.04
33 | 0.818 | 0.657 | 0.559 | SRGSSYNSIPK [FLNC_Y2625_S2626N] | 0.525 | 0.356 | 0.328 | 0.587 | 0.524 | 0.486 | 0.383 | 0.297 | 0.33 | 0.286 | 0.53 | 0.417 | 0.642
